Results: PMC7026339, “Human bone morphogenetic protein-2 (hBMP-2) characterization by physical–chemical, immunological and biological assays” (AMB Express, 2020)

Target: the molecule itself
Test: SDS-PAGE and Western blotting under non-reducing conditions; 15% acrylamide gel, Coomassie Blue G stain; Western blot with anti-hBMP-2 rabbit IgG; non-reducing conditions; shows the disulfide-linked dimer

Row | Protein | stoichiometry N
1 | E. coli-derived methionyl-human bone morphogenetic protein-2 (met-hBMP-2, GenScript) (natural protein, initial methionine of methionyl-hBMP-2 (printed as 'initial Met'); human bone morphogenetic protein-2, mature protein of 114 AA (theoretical backbone 12,905 Da without the initial Met; 13,036 Da with it); theoretical mass of the dimer 26,072 Da; also called E. coli-derived hBMP-2; GenScript preparation; source: bought: GenScript (from E. coli), lyophilized, reconstituted in 20 mM acetic acid) MQAKHKQRKRLKSSCKRHPLYVDFSDVGWNDWIVAPPGYHAFYCHGECPFPLADHLNSTNHAIVQTLVNSVNSKIPKACCVPTELSAISMLYLDENEKVVLKNYQDMVVEGCGCR | 2
2 | CHO-derived hBMP-2 (Infuse, Medtronic), 114 amino acid glycosylated subunit (form A) (natural protein, human, UniProt P12643 283-396, looked up, glycosylated at one site with high-mannose-type glycans, human bone morphogenetic protein-2, authentic mature protein of 114 AA without initial Met (backbone 12,905 Da); Infuse is a disulfide-linked dimeric protein with two major subunit species of 114 and 131 amino acids; this molecule is the 114 AA subunit; also called 14,377 Da form; 114 AA monomer) QAKHKQRKRLKSSCKRHPLYVDFSDVGWNDWIVAPPGYHAFYCHGECPFPLADHLNSTNHAIVQTLVNSVNSKIPKACCVPTELSAISMLYLDENEKVVLKNYQDMVVEGCGCR | 2
